Tests used:
[1] = biological target: TSHR (thyroid stimulating hormone receptor), full length human (human) (UniProt P16473); experiment: negative control; competitor ^125I-K1-70 IgG, TSHR coated tubes; 100 µg/mL in HBD
[2] = biological target: thyroid stimulating hormone receptor (TSHR), full length human TSHR (human) (UniProt P16473); experiment: TSH-biotin competition ELISA, TSHR coated wells; negative control, 100 µg/mL in HBD serum
[3] = biological target: TSH receptor (TSHR) coated on tubes (human) (UniProt P16473); experiment: inhibition of 125I-K1-70 IgG binding to TSHR coated tubes; negative control 1 µg/mL in assay buffer
[4] = biological target: TSH receptor (TSHR), full length human, coated on tubes (human) (UniProt P16473); experiment: inhibition of 125I-TSH binding to TSHR coated tubes; 0.01 µg/mL, diluted in assay buffer; mean of duplicates
[5] = biological target: TSHR (full length) coated on tubes (human) (UniProt P16473); experiment: inhibition of 125I-K1-18 Fab (competitor) binding to TSHR coated tubes; negative control 0.1 µg/mL in assay buffer
[6] = biological target: TSH receptor (TSHR), full length human, coated on tubes (human) (UniProt P16473); experiment: inhibition of 125I-K1-18 IgG binding to TSHR coated tubes; competitor 125I-K1-18 IgG; negative control sample at 100 µg/mL in assay buffer
[7] = biological target: TSH receptor (full length human TSHR) (human) (UniProt P16473); experiment: competition ELISA: inhibition of M22 Fab-peroxidase (competitor) binding to TSHR coated wells; negative control at 0.1 µg/mL diluted in HBD serum pool
[8] = biological target: thyroid stimulating hormone receptor (TSHR), full length human TSHR (human) (UniProt P16473); experiment: TSH-biotin competition ELISA, TSHR coated wells; 10 µg/mL in HBD serum
[9] = biological target: thyroid stimulating hormone receptor (TSHR), full length human TSHR (human) (UniProt P16473); experiment: TSH-biotin competition ELISA, TSHR coated wells; 0.01 µg/mL in HBD serum
[10] = biological target: TSHR (thyroid stimulating hormone receptor), full length human (human) (UniProt P16473); experiment: competitor ^125I-K1-70 IgG, TSHR coated tubes; 0.1 µg/mL in assay buffer
[11] = biological target: TSH receptor (TSHR), full length human, coated on tubes (human) (UniProt P16473); experiment: inhibition of 125I-TSH binding to TSHR coated tubes; 0.01 µg/mL, diluted in assay buffer
[12] = biological target: TSHR (full length) coated on tubes (human) (UniProt P16473); experiment: inhibition of 125I-K1-18 Fab (competitor) binding to TSHR coated tubes; test sample 0.01 µg/mL in assay buffer
[13] = biological target: TSH receptor (full length human TSHR) (human) (UniProt P16473); experiment: competition ELISA: inhibition of M22 Fab-peroxidase (competitor) binding to TSHR coated wells; test sample at 1 µg/mL diluted in assay buffer
[14] = biological target: TSH receptor (full length human TSHR) (human) (UniProt P16473); experiment: competition ELISA: inhibition of M22 Fab-peroxidase (competitor) binding to TSHR coated wells; test sample at 10 µg/mL diluted in assay buffer
[15] = biological target: TSH receptor (full length human TSHR) coated on tubes (human) (UniProt P16473); experiment: 125I-TSH binding inhibition read against NIBSC 90/672; 30 ng/mL, in assay buffer
[16] = biological target: TSH receptor (TSHR) coated on tubes (human) (UniProt P16473); experiment: inhibition of 125I-K1-70 IgG binding to TSHR coated tubes; sample 0.003 µg/mL in HBD serum pool; duplicate determination
[17] = biological target: human thyroid stimulating hormone receptor (TSHR), full length (human) (UniProt P16473); experiment: 125I-K1-18 Fab competition, TSHR coated tubes; 1 µg/mL in HBD
[18] = biological target: human thyroid stimulating hormone receptor (TSHR), full length (human) (UniProt P16473); experiment: 125I-K1-18 Fab competition, TSHR coated tubes; 100 µg/mL in HBD
[19] = biological target: human thyroid stimulating hormone receptor (TSHR), full length (human) (UniProt P16473); experiment: 125I-K1-18 Fab competition, TSHR coated tubes; 100 µg/mL in assay buffer
[20] = biological target: human TSH receptor (full length) coated on ELISA plate wells (human) (UniProt P16473); experiment: TSH-biotin binding inhibition ELISA, TSHR coated wells; 1 µg/mL in HBD serum pool
[21] = biological target: human TSH receptor (full length) coated on ELISA plate wells (human) (UniProt P16473); experiment: TSH-biotin binding inhibition ELISA, TSHR coated wells; 0.01 µg/mL in assay buffer
[22] = biological target: human TSH receptor (full length) coated on ELISA plate wells (human) (UniProt P16473); experiment: TSH-biotin binding inhibition ELISA, TSHR coated wells; 0.01 µg/mL in HBD serum pool
[23] = biological target: thyroid stimulating hormone receptor (TSHR), full length, coated on tubes (human) (UniProt P16473); experiment: inhibition of 125I-TSH binding, TSHR coated tubes; antibody 0.01 µg/mL in HBD serum pool
[24] = biological target: TSH receptor (TSHR) coated on tubes (human) (UniProt P16473); experiment: inhibition of 125I-K1-70 IgG binding to TSHR coated tubes; sample 1 µg/mL in HBD serum pool
[25] = biological target: thyroid stimulating hormone receptor (full length human TSHR) (human) (UniProt P16473); experiment: ELISA, inhibition of TSH-biotin binding to TSHR coated wells; 0.01 µg/mL, diluted in HBD serum pool
[26] = biological target: human TSH receptor (full length) coated on ELISA plate wells (human) (UniProt P16473); experiment: TSH-biotin binding inhibition ELISA, TSHR coated wells; 1 µg/mL in assay buffer + 100 µg/mL 5B3 IgG
[27] = biological target: thyroid stimulating hormone receptor (full length human TSHR) (human) (UniProt P16473); experiment: ELISA: inhibition of M22 Fab-peroxidase (competitor) binding to TSHR coated wells; 0.1 µg/mL, diluted in assay buffer
[28] = biological target: thyroid stimulating hormone receptor (full length human TSHR) (human) (UniProt P16473); experiment: ELISA: inhibition of M22 Fab-peroxidase (competitor) binding to TSHR coated wells; 1 µg/mL, diluted in HBD serum pool

An Inhibition of binding (%) [1] of -0.9%, an Inhibition of binding (%) [2] of -2.3% and an Inhibition of binding (%) [3] of -2.6% were found for 5B3 IgG (antibody) in this work. The Inhibition of binding (%) [4] was -5.8%, the Inhibition of binding (%) [5] was -3.6% and the Inhibition of binding (%) [6] was 6.7%. The Inhibition of binding (%) [7] was 3%.

An Inhibition of binding (%) [8] of 83.2%, an Inhibition of binding (%) [9] of 10.1% and an Inhibition of binding (%) [10] of 24.8% were found for 9D33 IgG (antibody) in this work. It also gave an Inhibition of binding (%) [11] of 15.8%, an Inhibition of binding (%) [12] of 7.9% and an Inhibition of binding (%) [13] of 60.1%. It also gave an Inhibition of binding (%) [14] of 64.2%.

A units/L [15] of 8.6 units/L, a units/mg [15] of 287 units/mg and an Inhibition of binding (%) [16] of 6.2% were found for M22 IgG (antibody) in this work.

B1: 5C9 IgG (antibody, from another filing, V domains shown)
VH: EVQLVESGGGLIQPGGSLRLSCAASGFTVSSNYMSWVRQAPGKGLEWVSVTYSGGSTSYADSVKGRFTISRDNSKNTLYLQMNSLRAEDTAVYYCARGGRYCSSISCYARSGCDYWGQGTLVTVSS
VL: AIQMTQSPSSLSASVGDRVTITCRASQSISNYLNWYQQKPGKAPKLLIYAASSLQSGVPSRFSGSGSGTDFTLTISSLQPEDFATYYCQQSYSSPSTTFGQGTKLEIK
An Inhibition of binding (%) [17] of 23.2%, an Inhibition of binding (%) [18] of 61.3% and an Inhibition of binding (%) [19] of 85.2% were found for B1 in this work. The % inhibition of TSH-biotin binding [20] was 35.7%, the % inhibition of TSH-biotin binding [21] was 16.1% and the % inhibition of TSH-biotin binding [22] was 7.5%. The Inhibition of binding (%) [23] was 4.1%, the Inhibition of binding (%) [24] was 15.4% and the Inhibition of binding (%) [25] was -2.6%. For the same molecule, the % inhibition of TSH-biotin binding [26] was 46.7%, the Inhibition of binding (%) [27] was 7.1% and the Inhibition of binding (%) [28] was 7.8%.
